The numbers were not newly measured in PMC8946809, which cites them from elsewhere.

In the data set the target is His516 (UniProt position 538, FRPNYHGVGTC). Put plainly: kinetics. The note with it: enzyme-substrate complex.

As for “Glucose oxidase (GOx) (Aspergillus niger)”, the pKa is 6.9–7.8.
